Results: US6221608A, “Methods for identifying erythropoietin receptor binding protein” (Ortho Pharmaceutical Corporation, priority 1997, dated 2001)
Where two headings read alike, the source gives them in different places. Bridge positions count the residues as written; N and C are the ends. Square brackets hold non-standard residues; d marks the D form. Ends that are not written are not given here. Peptide text beside a SMILES is read from it. Tyr(3,5-Br2) = N[C@@H](Cc1cc(Br)c(O)c(Br)c1)C(=O)O

Key:
EBP [1] = molecular target: T1, EBP (Homo sapiens, UniProt P19235); test: EBP bead competitive binding assay vs [125I]EPO; conditions: for competition in EBP-bead binding assay: result in words
T1 construct: one encoding amino acids 1-225 of the extracellular domain of the mature hEPOR; made in house; host or cells: E. coli BL21(DE3)pLysS (plasmid pSAM3)
T1 sequence (P19235 25-249): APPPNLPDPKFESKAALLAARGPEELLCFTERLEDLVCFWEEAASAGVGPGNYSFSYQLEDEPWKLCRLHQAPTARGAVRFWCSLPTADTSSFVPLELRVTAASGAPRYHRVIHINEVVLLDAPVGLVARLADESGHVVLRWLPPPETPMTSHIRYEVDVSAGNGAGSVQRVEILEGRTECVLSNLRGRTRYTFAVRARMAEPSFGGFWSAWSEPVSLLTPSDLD
Source text: EBP as produced by the above method contains one free sulfhydryl group which can be modified without affecting the solution phase binding of ligand. In order to immobilize the EBP for equilibrium binding analysis this observation was extended for the covalent attachment of EBP to agarose beads. The iodoacetyl activation chemistry of Sulfolink beads (Pierce Chemical Co, Rockford, Ill.) is specific for free thiols and assures that the linkage is not easily reversible. EBP-Sulfolink beads were made as follows: Sulfolink gel suspension (10 ml) was mixed with coupling buffer (40 ml: 50 mM TRIS, pH 8.3, 5 mM EDTA) and the gel was allowed to settle. The supernatant was removed and the EBP (0.3-1 mg/ml in coupling buffer) to be bound was added directly to the washed beads. The mixture was rocked gently for 30 minutes at room temperature, and the beads were allowed to settle for 1 hour at room temperature. The supernatant was removed and saved, and the beads were washed twice with 20 ml of coupling buffer. The washes were retained as well. The beads were then treated with 20 ml of 0.05 M cysteine for 30 minutes at room temperature to block unbound sites. Finally, the beads were washed with 50 ml of 1 M NaCl, then with 30 ml of PBS, and resuspended in 20 ml of PBS and stored at 4° C. The amount of EBP which was covalently bound to the beads was determined by comparing the OD280 of the original EBP solution to the total OD280 recovered in the reaction supernatant and the two 20 ml washes. Typically, 40-60% of the applied EBP remains associated with the beads.
Competitive binding assays of peptides were performed as described herein. Individual peptides were dissolved in DMSO to prepare a stock solution of 1 mM. […] Initial assay points with no added peptide were included in each assay to determine total binding. Binding mixtures were incubated overnight at room temperature with gentle rocking. The beads were then collected using Micro-columns (Isolab, Inc.) and washed with 3 mL of wash buffer (PBS/5% BSA). The columns containing the washed beads were placed in 12×75 mm glass tubes and bound radioactivity levels determined in a gamma counter.

EBP-Ig [2] = molecular target: T2, EBP-Ig (Homo sapiens, UniProt P19235); test: EBP-Ig Flash Plate EPO radioligand binding assay; conditions: for IC50: read-out: EBP-Ig Binding IC 50; for competition in EBP-Ig binding assay: result in words
T2 construct: one encoding amino acids 1-225 of the extracellular domain of the mature hEPOR; made in house
T2 sequence (P19235 with tags, fused parts or gaps limits assumed): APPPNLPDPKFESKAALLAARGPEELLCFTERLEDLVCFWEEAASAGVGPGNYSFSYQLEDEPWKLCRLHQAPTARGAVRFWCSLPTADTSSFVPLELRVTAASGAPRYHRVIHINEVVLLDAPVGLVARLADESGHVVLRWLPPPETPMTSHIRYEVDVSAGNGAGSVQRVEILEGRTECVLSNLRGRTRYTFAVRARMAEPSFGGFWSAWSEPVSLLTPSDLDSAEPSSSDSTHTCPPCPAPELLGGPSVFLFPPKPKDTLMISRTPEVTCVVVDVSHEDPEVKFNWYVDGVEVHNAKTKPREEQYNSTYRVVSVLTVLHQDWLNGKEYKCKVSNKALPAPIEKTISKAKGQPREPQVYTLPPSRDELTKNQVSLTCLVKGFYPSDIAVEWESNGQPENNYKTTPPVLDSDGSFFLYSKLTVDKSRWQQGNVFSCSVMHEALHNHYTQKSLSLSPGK
Source text: The interaction of biotin and strepavidin is frequently employed to capture and effectively immobilize reagents useful in assay protocols and has been employed here as a simple method to capture and immobilize EBP-Ig. EBP-Ig is initially randomly modified with an amine reactive derivative of biotin to produce biotinylated-EBP-Ig. Use of strepavidin coated plates allows the capture of the biotinylated EBP-Ig on the surface of a scintillant impregnated coated well (Flash plates, NEN-DuPont). […] The amount of light produced was quantified to estimate the amount of ligand binding. The specific assay format was suitable for the multi-well plate capacity of a Packard TopCount Microplate Scintillation counter.
Biotinylated EBP-Ig (3S mutant) was prepared as follows. EBP-Ig (3 ml, OD280 2.9) was exchanged into 50 mM sodium bicarbonate, pH 8.5 using a Centriprep 10 ultrafiltration device. […] 10 μl of a 4 mg/ml solution of NHS-LC-Biotin (Pierce) was added and the reaction mixture placed on ice in the dark for two hours. Unreacted biotin was removed by exchange of the reaction buffer into PBS in a Centriprep 10 device and the protein reagent aliquoted and stored at […].
All wells were adjusted to a final DMSO concentration of 5%. […] After all additions were made, the plate was covered with an adhesive top seal and placed in the dark at room temperature overnight. The next day all liquid was aspirated from the wells to limit analyte dependent quench of the signal, and the plates were counted on a Packard TOPCOUNT Microplate Scintillation Counter. […] Corrected total binding (CTB) was calculated as: TB-NSB=CTB. The concentration of test peptide which reduced CTB to 50% was reported as the IC50.

FDC-P1/hER cells = test: EPO dependent cell proliferation assay; type: cell-based, human EPO receptor; conditions: for EC50 / FDCP-P1-hER ED50: amount of peptide for one half of maximal activity of recombinant EPO, 42 h + 6 h [3H]thymidine; for EC50: 2880 min, read-out: FDCP-P1-hER ED50; for EPO mimetic activity / proliferative capacity: cell proliferation, result in words
Experimental: At 24 hours, the cells were counted, resuspended at 800,000 cells/ml and dispensed at 40,000 cells/well. Stock solutions of the respective peptides (10 mM in DMSO) were prepared and dispensed in triplicate to final concentrations of 1×10^-10 M through 1×10^-5 M and adjusted to a final volume of 0.2 ml. […] A standard EPO dose response curve was generated with each assay series. After a 42 hours incubation at 37° C. (about 2 cell doublings) 1 μCi/well of [^3 H] thymidine was added and the incubation continued for 6 hours at which time the cells were harvested and counted to assess [^3 H] thymidine incorporation as a measure of cell proliferation.

EBP [3] = molecular target: T1, EBP; test: DPDPB crosslinking: dimerization of EBP by EPO mimetic peptides (SDS-PAGE); type: biochemical; conditions: 22 μM EBP, 1.1 mM DPDPB, 400 μM peptide, visual detection of dimer product
Experimental: Peptide-mediated receptor dimerization was stabilized for study using the non-water soluble homobifunctional sulfhydryl reactive cross linking reagent DPDPB (1,4-di-[2'-pyridyldithio)propionamido]butane, Pierce Chemical Co., Rockford, Ill.). EBP (22 μM) was incubated in the presence or absence of DPDPB (1.1 mM), 400 μM peptide ligand, 75 μl of PBS, pH 7.5 with all reactions and controls containing a final concentration of 4.4% DMSO and 0.007% TFA. These samples were incubated for 4 hours at room temperature and stored at 4° C. for 12 hours before analysis under reducing and non-reducing conditions by SDS-PAGE (10-20% gradient gels, Integrated Separations Systems, Natick, Mass.).

EBP-Ig [4] = molecular target: T2, EBP-Ig; test: Fluorescence polarization competitive binding assay with fluorescein-RWJ 61718; conditions: for IC50: read-out: FP/EBP-Ig IC50; for competition in FP/EBP-Ig assay: fluorescein-RWJ 61718 as labelled ligand, result in words
Experimental: Fluorescence polarization (FP) is a useful technique capable of providing information on changes in molecular volume which occur upon the association or dissociation of two molecules. […] Conversely, if a non-fluorescent competitor molecule is added to this complex then a decrease in the fluorescence polarization value can be anticipated [Checovich, W. J., Bolger, R. E. & Burke, T. Fluorescence polarization-a new tool for cell and molecular biology, Nature 375, 254-256 (1995)]. RWJ 61718 was labeled with a fluorescein reporter group by treating 10 mg of peptide solubilized in 3 ml of PBS with 17.9 mg of fluorescein isothiocyanate dissolved in 1 ml DMSO (added in 100 μl aliquots). RWJ 61718 contained a single amine (N-terminus) and 1:1 label incorporation was expected. This mixture was placed on ice and the solution cleared by the addition of 1.0 ml of DMSO. Following a 34 hour incubation at 4° C., fluorescein labeled RWJ 61718 was isolated by reverse phase HPLC. The entire reaction mixture was diluted 1:2 with 0.1% trifluoroacetic acid (TFA; mobile phase A), pumped onto a C-18 reversed phase preparative column (Vydac #218tp54) at 8 ml/min and eluted with a 90 minute linear gradient of 0-100% mobile phase B (acetonitrile containing 0.7% TFA). Fractions containing fluorescent products (excitation wavelength 488 nm, emission wavelength 530 nm) at 530 nm were collected and lyophilized. A highly fluorescent peak eluting at near 60 minutes (ca 60% mobile phase B) was determined to be the desired product by monitoring FP changes in the presence of EBP-Ig.
A competitive FP assay using fluorescein labeled RWJ 61718 as the receptor ligand was established as follows using a Fluorescence Polarization Microtiter System (Jolley Consulting). Test peptides at variable concentrations and EBP-Ig (3S mutant, 0.025 mg/ml) were incubated for 1 hour at room temperature in 90 μl PBS and dispensed into a Dynatech Microfluor plate 96 well plate. Fluorescein-RWJ 61718 was added to each well (10 μl in 0.1% TFA) to a final concentration of 2.5 μM followed by an additional 1 hr incubation at room temperate in the dark. Values for milliPolarization (mP) were obtained at an instrument voltage setting of 8.0. Baseline peptide values were determined from wells which contained only labeled peptide and PBS. Total mP readings were determined in test wells which contained labeled peptide and EBP-Ig only. Peptide concentration dependent competitive reduction in mP values were determined and an IC50 value calculated.

[5] = 0.5 nM [125I]EPO, 2.5% DMSO, overnight, room temperature
[6] = 0.5 nM [125I]EPO, 1 μg/ml biotinylated EBP-Ig (3S mutant), 5% DMSO, overnight
[7] = EBP-Ig (3S mutant) 0.025 mg/ml, fluorescein-RWJ 61718 2.5 μM

Compound	IC50 (EBP [1]; [5])	competition in EBP-bead binding assay (EBP [1])	IC50 (EBP-Ig [2]; [6])	competition in EBP-Ig binding assay (EBP-Ig [2])	EC50 (FDC-P1/hER cells)	EPO mimetic activity / proliferative capacity (FDC-P1/hER cells)	DPDPB cross-linking (EBP [3])	IC50 (EBP-Ig [4]; [7])	competition in FP/EBP-Ig assay (EBP-Ig [4])	FDCP-P1-hER ED50 (FDC-P1/hER cells)	DPDPB cross-linking (EBP [3]; listed as 61177)	FP/EBP-Ig IC50 (EBP-Ig [4]; [7])	IC50 (EBP [1])	IC50 (EBP-Ig [2])
GGTYSCHFGPLTWVCKPQGG [RWJ 61233]	5 µM	competes at similar levels in both the EBP-bead and EBP-Ig binding assays	1 µM	competes at similar levels in both the EBP-bead and EBP-Ig binding assays	0.1 µM	functions as an EPO mimetic	positive	0.5 µM	positive					
CC(C)C[C@@H]1NC(=O)[C@@H]2CCCN2C(=O)CNC(=O)[C@H](Cc2ccccc2)NC(=O)[C@H](Cc2cnc[nH]2)NC(=O)[C@@H](NC(=O)[C@@H](N)CO)CSSC[C@@H](C(=O)N[C@@H](CCCCN)C(N)=O)NC(=O)[C@H](C(C)C)NC(=O)[C@H](Cc2c[nH]c3ccccc23)NC(=O)[C@H]([C@@H](C)O)NC1=O [RWJ 61177] (H-SCHFGPLTWVCK-NH2; disulfide 2-11)						without proliferative capacity	deficient in crosslinking ability		inactive	Inactive	negative	Inactive		
YSCHFGPLTWVCK (YSCHFGPLYWVCK) [RWJ 61279]	70 µM				8 µM	with proliferative capacity	positive							
GGTYSCHFGPLTWVCKPQ [RWJ 61596]	8 µM				0.08 µM									
CC(C)C[C@@H]1NC(=O)[C@@H]2CCCN2C(=O)CNC(=O)[C@H](Cc2ccccc2)NC(=O)[C@H](Cc2c[nH]cn2)NC(=O)[C@@H](NC(=O)[C@@H](N)CO)CSSC[C@@H](C(=O)N[C@@H](CCCCN)C(N)=O)NC(=O)[C@H](C(C)C)NC(=O)[C@H](Cc2c[nH]c3ccccc23)NC(=O)[C@H]([C@@H](C)O)NC1=O [RWJ 61177] (H-SCHFGPLTWVCK-NH2; disulfide 2-11)													90 µM	500 µM
GGTXSCHFGPLTWVCKPQGG (GGT[Tyr(3,5-Br2)]SCHFGPLTWVCKPQGG-NH2; disulfide 6-15 (inferred)) [RWJ 62021, X = 3,5-dibromo-tyr]	150 µM	very poorly	400 µM	very poorly		without proliferative potential	some crosslinking potential	5 µM	very efficient competitors	Inactive				
GGLYACHMGPMTWVCQPLRG (GGKYACHMGPMTWVCQPKRG) [RWJ 61718]	3 µM		0.1 µM		0.1 µM	with proliferative capacity	positive	0.35 µM						
